Kd data for one molecule are collected here from article PMC10716038, “Talin and kindlin use integrin tail allostery and direct binding to activate integrins” (Nature Structural & Molecular Biology, 2023).

Several values for one entry are separate records, joined by “and”; a condition that tells them apart may be missing. Equal values may be shown once. No end group written: not given here.

Holding throughout (conditions): both partners purified
For experiment [1], the target named is T1, kindlin-2 (KIND2) (UniProt Q8CIB5 1-680).
T1 construct: kindlin-2 (KIND2), recombinant; with the F1 loop and the PH domain (unlike ΔKIND2); source: E. coli Rosetta, purified (IMAC, SEC); not shown: His10-SUMO, N-terminal, cleaved
T1 sequence (looked up): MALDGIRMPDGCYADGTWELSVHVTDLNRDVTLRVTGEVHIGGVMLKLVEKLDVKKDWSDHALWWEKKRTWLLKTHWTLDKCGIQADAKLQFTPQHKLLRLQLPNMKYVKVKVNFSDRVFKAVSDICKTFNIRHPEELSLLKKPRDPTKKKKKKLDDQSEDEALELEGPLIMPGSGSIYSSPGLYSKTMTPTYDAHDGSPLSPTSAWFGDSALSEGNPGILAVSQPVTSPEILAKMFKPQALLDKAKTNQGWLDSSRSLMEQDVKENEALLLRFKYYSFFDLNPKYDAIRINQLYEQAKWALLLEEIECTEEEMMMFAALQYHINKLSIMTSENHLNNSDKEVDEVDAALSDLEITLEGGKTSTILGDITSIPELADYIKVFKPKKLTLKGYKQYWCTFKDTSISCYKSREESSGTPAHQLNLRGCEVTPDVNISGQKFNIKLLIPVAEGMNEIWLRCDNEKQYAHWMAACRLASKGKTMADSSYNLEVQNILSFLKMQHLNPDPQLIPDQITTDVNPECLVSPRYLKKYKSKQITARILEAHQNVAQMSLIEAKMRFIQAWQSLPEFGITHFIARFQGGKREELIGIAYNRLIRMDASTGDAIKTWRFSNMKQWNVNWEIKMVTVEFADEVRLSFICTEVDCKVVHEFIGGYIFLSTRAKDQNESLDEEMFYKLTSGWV
As to the kind of experiment: MST; apparent; KIND2 titrated to 488–β3-CT in the presence of 100–400 µM THD2; MST buffer.

The target of experiment [2] is T1, kindlin-2 (KIND2). In words: MST; apparent; KIND2 titrated to 488–β3-CT in the presence of 120 µM THD1-K402E; MST buffer.
Experiment [3] has as its target T2, talin-1 head domain (THD1) (UniProt P26039 1-405).
T2 construct: talin-1 (TLN1) head domain (THD), residues 1-405; murine TLN1 cDNA is named only for the cell lines; also called WT; source: E. coli (DE3) Rosetta 2, purified (IMAC, SEC); not shown: His10-SUMO, N-terminal, cleaved
In words: MST; apparent; THD1 titrated to 488–β3-CT in the presence of 30-40 µM KIND2-Y13A; MST buffer.

For experiment [4], the target named is T1, kindlin-2 (KIND2). As to the kind of experiment: MST; apparent; KIND2 titrated to 488–β3-CT in the presence of 250-450 µM TLN1-F3; MST buffer.
In experiment [5] the target is T1, kindlin-2 (KIND2). In words: MST; apparent; KIND2 titrated to 488–β3-CT in the presence of 250-450 µM TLN2-F3; MST buffer.
The next experiment deals with T3, THD1 K402E (UniProt P26039 1-405, K402E).
T3 construct: talin-1 (TLN1) head domain, residues 1-405, K402E; source: E. coli (DE3) Rosetta 2, purified (IMAC, SEC); not shown: His10-SUMO, N-terminal, cleaved
T3 sequence (P26039 1-405 K402E): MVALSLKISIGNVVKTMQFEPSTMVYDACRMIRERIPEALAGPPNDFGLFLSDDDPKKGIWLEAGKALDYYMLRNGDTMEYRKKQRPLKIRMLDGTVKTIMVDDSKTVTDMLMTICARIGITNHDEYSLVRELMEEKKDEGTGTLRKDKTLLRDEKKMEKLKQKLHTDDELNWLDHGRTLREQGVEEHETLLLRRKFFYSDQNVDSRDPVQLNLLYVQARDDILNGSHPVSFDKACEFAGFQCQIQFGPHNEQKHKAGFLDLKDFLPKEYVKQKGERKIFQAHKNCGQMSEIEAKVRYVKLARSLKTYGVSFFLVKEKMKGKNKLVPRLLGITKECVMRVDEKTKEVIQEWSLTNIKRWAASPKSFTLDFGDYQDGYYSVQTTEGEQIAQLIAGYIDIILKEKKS
As to the kind of experiment: MST; apparent; THD1 or THD1 mutants titrated to 488–β3-CT in the presence of 30-40 µM KIND2; MST buffer.

In a further experiment the target is T4, KIND2 Y13A (UniProt Q8CIB5 1-680, Y13A).
T4 construct: kindlin-2 (KIND2), recombinant, Y13A; source: E. coli Rosetta, purified (IMAC, SEC); not shown: His10-SUMO, N-terminal, cleaved
T4 sequence (looked up): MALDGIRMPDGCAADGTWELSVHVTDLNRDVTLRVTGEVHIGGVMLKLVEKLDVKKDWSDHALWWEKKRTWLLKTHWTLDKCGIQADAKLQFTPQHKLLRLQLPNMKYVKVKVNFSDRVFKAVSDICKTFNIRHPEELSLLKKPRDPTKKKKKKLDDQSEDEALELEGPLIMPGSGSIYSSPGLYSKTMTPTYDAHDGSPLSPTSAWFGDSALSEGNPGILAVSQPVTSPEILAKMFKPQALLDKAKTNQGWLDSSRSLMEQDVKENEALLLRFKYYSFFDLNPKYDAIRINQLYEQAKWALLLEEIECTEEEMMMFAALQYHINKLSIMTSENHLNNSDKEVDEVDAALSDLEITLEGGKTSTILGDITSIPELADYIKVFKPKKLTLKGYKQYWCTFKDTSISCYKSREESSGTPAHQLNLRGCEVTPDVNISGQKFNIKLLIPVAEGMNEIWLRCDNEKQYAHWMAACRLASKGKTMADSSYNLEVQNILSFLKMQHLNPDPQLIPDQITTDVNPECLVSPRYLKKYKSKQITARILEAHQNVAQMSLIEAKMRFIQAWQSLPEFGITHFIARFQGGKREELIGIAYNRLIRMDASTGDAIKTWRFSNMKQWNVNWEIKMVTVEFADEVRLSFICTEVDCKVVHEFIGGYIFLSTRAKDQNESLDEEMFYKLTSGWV
In words: MST; apparent; KIND2-Y13A titrated to 488–β3-CT or KIND2 to 488–β1-spacer-CT in the presence of 300-400 µM THD1; MST buffer.

Experiment [6] concerns the target T2, talin-1 head domain (THD1). As to the kind of experiment: MST; apparent; THD1 titrated to 488–β1-CT or 488–β3-CT in the presence of 300–400 µM β-CT-binding-impaired KIND2 Q614A,W615A (QW/AA); MST buffer.
The target of experiment [7] is T2, talin-1 head domain (THD1). In words: MST; unlabelled protein titrated to 50-200 nM ATTO 488-labelled β-CT peptide, no third protein; 20 mM Tris pH 7.5, 200 mM NaCl, 1 mM TCEP, 0.05% Tween-20; Kd of individual titrations (in S0002 mean and sd, n = 2).

T2 sequence (P26039 1-405): as the sequence (P26039 1-405 K402E) above, with E402K counted along it

B1: ATTO 488-labeled integrin β3 cytoplasmic tail (488–β3-CT) (peptide, UniProt O54890 741-787, looked up)
peptide: {ATTO 488}-KLLITIHDRKEFAKFEEERARAKWDTANNPLYKEATSTFTNITYRGT
notes: integrin β3 cytoplasmic tail (β3-CT); source: synthetic peptide (MPIB Core Facility)
As to B1, the Kd in the experiment with kindlin-2 (KIND2) [1] is 20.9 µM and 29.1 µM and 29.5 µM; in the experiment with kindlin-2 (KIND2) [2], 16.4 µM and 15.8 µM and 16.7 µM; in experiment [3], 283 µM and 241 µM and 188 µM and 159 µM; with kindlin-2 (KIND2) [4], 119 µM and 121 µM; in the experiment with kindlin-2 (KIND2) [5] it was 55.8 µM and 30.2 µM and 54.2 µM; with THD1 K402E it was 54.3 µM and 67.7 µM and 70.3 µM. Also, the Kd in the experiment with KIND2 Y13A is 24 µM and 20.7 µM and 18.8 µM; in experiment [6], 183 µM and 137 µM and 88 µM; in [7] it was 81.6 µM.
